# Bridge positions count the residues as written; N and C are the ends. Ends that are not written are not given here.
# How the values were obtained:
# bovine trypsin [1] = biological target: T1, bovine trypsin (bovine, UniProt P00760 24-246); assay: trypsin (50 nM) BApNA hydrolysis, OD405; peptide at 0.98 µM
# Protocol: (§1) The substrates N-succinyl-Ala-Ala-Pro-Phe-p-nitroaniline (AAPFpNA), Nα—Benzoyl-L-arginine-4-nitroaniline hydrochloride (BApNA) and N-succinyl-[…] (AAApNA) are used in competitive binding reaction to determine the inhibitory activities against α-chymotrypsin, bovine trypsin, and porcine pancreatic elastase, respectively. Experiments for α-chymotrypsin and bovine trypsin inhibition were measured in 20 mM CaCl₂, 50 mM Tris-HCl buffer (pH 7.8), and that for porcine elastase inhibition was measured in 50 mM Tris-HCl buffer (pH 8.0). The concentration of the peptide was measured using optical density (OD) at 280 nm. The Michaelis constant (Kₘ) of the enzyme hydrolysis substrate is calculated from the initial rate of substrate hydrolysis at 405 nm. The absorbance value of the substrate was measured at 405 nm after complete hydrolysis. All data were processed using nonlinear regression.
# (§2) (1) Added a total 190 μL of reaction buffer (20 mM CaCl₂ and 50 mM Tris-HCl, pH 7.8) along with different concentrations of anti-trypsin peptides (BTs) into the pre-cooled 96-well plate, followed by preheating at 37° C., and spined down at 500 rpm for 5 min. Next added 10 μL of 1 μM trypsin, incubated at 37° C., and then spined down at 500 rpm for 10 min. Finally, added 5 μL of 50 mM BApNA, and mixed by centrifugation at 500 rpm for 1 min. […] The experiment was performed in triplicate. The blank control only contained the reaction buffer and the substrate as the minimum absorption value (Min OD_{405 nm}). The negative control only contained the reaction buffer, the enzyme and the substrate as the maximum absorption value (Max OD_{405 nm}). […] (2) In the reaction system of 205 μL, the final concentrations of trypsin and BApNA were 50 nM and 1.22 mM, respectively. [0456] (3) Data statistics
# bovine trypsin [2] = biological target: T1, bovine trypsin; assay: trypsin (50 nM) BApNA hydrolysis, OD405; peptide at 9.76 µM
# Protocol: as §1, §2
# bovine trypsin [3] = biological target: T1, bovine trypsin; assay: trypsin (50 nM) BApNA hydrolysis, OD405; peptide at 0.098 µM
# Protocol: as §1, §2
# bovine trypsin [4] = biological target: T1, bovine trypsin; assay: trypsin (50 nM) BApNA hydrolysis, OD405; peptide at 97.56 µM
# Protocol: as §1, §2
# bovine trypsin [5] = biological target: T1, bovine trypsin; assay: trypsin (50 nM) BApNA hydrolysis, OD405; peptide at 0.0098 µM
# Protocol: as §1, §2
# bovine trypsin [6] = biological target: T1, bovine trypsin; assay: trypsin (50 nM) BApNA hydrolysis, OD405; peptide at 0.0488 µM
# Protocol: as §1, §2
# bovine trypsin [7] = biological target: T1, bovine trypsin; assay: trypsin (50 nM) BApNA hydrolysis, OD405; peptide at 0.0780 µM
# Protocol: as §1
# (1) Added a total 190 μL of reaction buffer (20 mM CaCl₂ and 50 mM Tris-HCl, pH 7.8) along with different concentrations of anti-trypsin peptides (BTs) into the pre-cooled 96-well plate, followed by preheating at 37° C., and spined down at 500 rpm for 5 min. Next added 10 μL of 1 μM trypsin, incubated at 37° C., and then spined down at 500 rpm for 10 min. Finally, added 5 μL of 50 mM BApNA, and mixed by centrifugation at 500 rpm for 1 min. […] The experiment was performed in triplicate. […]
# bovine trypsin [8] = biological target: T1, bovine trypsin; assay: trypsin (50 nM) BApNA hydrolysis, OD405; peptide at 0.00098 µM
# bovine trypsin [9] = biological target: T1, bovine trypsin; assay: trypsin (50 nM) BApNA hydrolysis, OD405; peptide at 0.000098 µM
# Protocol: as §1, §2
# T1 sequence (P00760 24-246): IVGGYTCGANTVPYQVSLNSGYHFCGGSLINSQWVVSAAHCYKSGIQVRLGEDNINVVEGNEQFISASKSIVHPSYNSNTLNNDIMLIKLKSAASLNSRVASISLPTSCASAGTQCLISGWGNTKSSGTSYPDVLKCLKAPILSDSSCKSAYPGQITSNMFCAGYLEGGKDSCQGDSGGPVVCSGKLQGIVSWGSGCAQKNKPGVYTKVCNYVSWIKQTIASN
Binder,Residual trypsin activity (%) (bovine trypsin [1]),Residual trypsin activity (%) (bovine trypsin [2]),Residual trypsin activity (%) (bovine trypsin [3]),Residual trypsin activity (%) (bovine trypsin [4]),Residual trypsin activity (%) (bovine trypsin [5]),Residual trypsin activity (%) (bovine trypsin [6]),Residual trypsin activity (%) (bovine trypsin [7]),Residual trypsin activity (%) (bovine trypsin [8]),Residual trypsin activity (%) (bovine trypsin [9])
"CGRSTKSIPPICF (disulfide 1-12 (inferred), synthetic) [BT47]",0.2,0,5.6,0.1,108,57.4,39,105,103
"CGRQTKSIPPICF (disulfide 1-12 (inferred), synthetic) [BT54]",0.1,-0.1,7.2,,99.9,65.8,24.3,99.2,101
